One may read the Kd as the free concentration of one partner at which half of the binding sites on the other are occupied at equilibrium, for simple one-to-one binding. In general, koff refers to a measure of how fast the partners let go of each other. A word on the kon: it is the rate constant with which the complex forms. A high value points to fast association.

Results on two molecules are retold here after paper PMC11464748, “A novel assay of excess plasma kallikrein-kinin system activation in hereditary angioedema” (Frontiers in Allergy, 2024).

Common to all, as to conditions: both partners purified
For assay [1], the target named is T1, cleaved high-molecular-weight kininogen (HKa), purified (Homo sapiens, UniProt P01042, biotin (biotinylated HKa in the Fab screening ELISA) | biotin (biotinylated HKa in the Fab screening ELISA)).
T1 construct: heavy chain of HKa, the two-chain disulfide-linked product of high-molecular-weight kininogen after release of bradykinin, human; light chain of HKa, human; the purified HKa standard mainly consists of the 46-kDa light chain; also called cleaved HK; purified HKa standard protein; source: bought: Enzyme Research Laboratories
Put plainly: SPR; in the absence of zinc chloride.

Assay [2] deals with T1, cleaved high-molecular-weight kininogen …. Put plainly: SPR; in the presence of zinc chloride. For orientation: In SPR one partner is held on a chip, and binding of the other changes the refractive index at the surface.
Assay [3] deals with T2, cleaved high-molecular-weight kininogen (HKa) (Homo sapiens, UniProt P01042).
T2 construct: the two chains are linked by a disulfide; light chain of HKa (56-kDa or 46-kDa form); the purified HKa standard protein mainly consists of the 46-kDa light chain; also called cleaved HK; source: bought: Enzyme Research Laboratories
T2 sequence (P01042 whole entry, looked up): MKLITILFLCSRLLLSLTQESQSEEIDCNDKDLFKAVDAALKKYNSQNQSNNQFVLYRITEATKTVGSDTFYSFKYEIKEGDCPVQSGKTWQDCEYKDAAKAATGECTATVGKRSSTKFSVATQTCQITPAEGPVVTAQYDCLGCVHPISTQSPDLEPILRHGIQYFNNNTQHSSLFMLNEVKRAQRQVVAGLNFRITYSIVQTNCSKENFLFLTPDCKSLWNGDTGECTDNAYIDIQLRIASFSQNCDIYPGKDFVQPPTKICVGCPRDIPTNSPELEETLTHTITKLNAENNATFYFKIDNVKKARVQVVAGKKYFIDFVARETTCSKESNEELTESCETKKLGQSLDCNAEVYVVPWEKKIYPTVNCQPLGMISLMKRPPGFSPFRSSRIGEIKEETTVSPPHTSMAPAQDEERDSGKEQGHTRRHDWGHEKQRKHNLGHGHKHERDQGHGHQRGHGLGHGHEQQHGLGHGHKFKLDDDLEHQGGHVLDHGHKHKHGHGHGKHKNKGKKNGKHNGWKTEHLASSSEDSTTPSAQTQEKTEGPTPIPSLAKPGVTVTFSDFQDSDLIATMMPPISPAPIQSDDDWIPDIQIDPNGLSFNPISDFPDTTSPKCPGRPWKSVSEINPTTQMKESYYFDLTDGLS
Put plainly: SPR; HKa immobilised by amine coupling on a CM5 chip (~400 RU), M4-B4 injected 2 min at 50 uL/min, 15 min dissociation; Biacore 3000, 25°C, HBS-P (10 mM HEPES pH 7.4, 150 mM NaCl, 0.005% P20) with 200 uM ZnCl2; regeneration 10 mM glycine pH 1.5; 1:1 model.

For assay [4], the target named is T2, cleaved high-molecular-weight kininogen …. The assay is described as follows: SPR; HKa immobilised by amine coupling on a CM5 chip (~400 RU), M4-B4 injected 2 min at 50 uL/min, 15 min dissociation; Biacore 3000, 25°C, HBS-P (10 mM HEPES pH 7.4, 150 mM NaCl, 0.005% P20); no added ZnCl2; 1:1 model.

Several values for one entry are separate records, joined by “and”; a condition that tells them apart may be missing. Equal entries are not always repeated.

B1: M4-B4 antibody (Fab or IgG, format not told for the experiment) (antibody, V domains shown)
VH: EVQLLESGGGLVQPGGSLRLSCAASGFTFSFYVMVWVRQAPGKGLEWVSGISPSGGNTAYADSVKGRFTISRDNSKNTLYLQMNSLRAEDTAVYYCARKLFYYDDTKGYFDFWGQGTLVTVSS
VL: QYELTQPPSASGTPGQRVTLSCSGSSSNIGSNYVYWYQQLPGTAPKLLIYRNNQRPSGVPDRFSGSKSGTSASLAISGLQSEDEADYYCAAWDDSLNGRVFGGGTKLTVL
notes: variable part as the heavy chain of m1; as the light chain of m1; The optimised ELISA coated 'the M4-B4 Fab or IgG'; also called HKa-specific antibody
In the case of B1, the Kd in assay [1] was found to be 6.08 ± 0.26 nM; in assay [2] it was 1.06 ± 0.25 nM.

B2: M4-B4 (antibody, V domains shown)
VH: EVQLLESGGGLVQPGGSLRLSCAASGFTFSFYVMVWVRQAPGKGLEWVSGISPSGGNTAYADSVKGRFTISRDNSKNTLYLQMNSLRAEDTAVYYCARKLFYYDDTKGYFDFWGQGTLVTVSS
VL: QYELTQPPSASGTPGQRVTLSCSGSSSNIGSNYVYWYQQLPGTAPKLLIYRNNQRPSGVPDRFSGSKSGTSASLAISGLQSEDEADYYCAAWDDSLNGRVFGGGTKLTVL
notes: The legend of the SPR says only 'M4-B4 injected'; also called M004-B04; 559B-M0004-B04; source: Fab: E. coli, purified (protein A Sepharose); IgG1: 293T cells, transiently expressed, purified (protein A Sepharose)
In the case of B2, in assay [3], the Kd was 1.09 nM and 1.24 nM and 0.881 nM; the off-rate (koff) was 0.00125 s⁻¹ and 0.00172 s⁻¹ and 0.00156 s⁻¹ and 0.00164 s⁻¹; the kon is 1.38e+06 M⁻¹ s⁻¹ and 1.77e+06 M⁻¹ s⁻¹ and 1.58e+06 M⁻¹ s⁻¹ and 1.15e+06 M⁻¹ s⁻¹. Besides, in assay [4], the Kd is 5.9 nM and 6.26 nM; the koff was 0.0067 s⁻¹ and 0.00616 s⁻¹ and 0.00643 s⁻¹; the kon is 1.1e+06 M⁻¹ s⁻¹ (2×) and 984000 M⁻¹ s⁻¹.
